According to the Human Domainome abundance scans (Beltran et al. 2025):
± gives the uncertainty stated by the source.

B1: Pre-mRNA-processing factor 40 homolog B, residues 274 to 332; numbered along this chain, Q6NWY9 (parent)
chain: SNREKAKQAFKELLRDKAVPSNASWEQAMKMVVTDPRYSALPKLSEKKQAFNAYKAQRE

Variants of: B1
Assay: abundance fitness (aPCA) (normalised: wild type 0, dead -1); higher = more abundant; growth selection in yeast, the domain comes from the species named
Settings: Homo sapiens

Variant	abundance fitness
R3W	-0.251 ± 0.11
R3K	0.308 ± 0.12
R3E	-0.047 ± 0.11
R3I	0.06 ± 0.16
R3N	0.221 ± 0.23
R3A	-0.409 ± 0.1
R3M	0.07 ± 0.1
R3H	-0.281 ± 0.22
R3S	0.076 ± 0.089
R3P	0.034 ± 0.082
R3C	0.043 ± 0.12
R3G	-0.084 ± 0.072
R3T	-0.062 ± 0.1
R3L	0.044 ± 0.089
R3D	0.036 ± 0.19
R3F	-0.27 ± 0.17
K5V	-0.063 ± 0.066
K5W	-0.553 ± 0.081
K5N	-0.081 ± 0.17
K5G	-0.187 ± 0.066
K5T	-0.042 ± 0.095
K5P	-0.409 ± 0.11
K5L	-0.177 ± 0.072
K5M	-0.024 ± 0.096

Variant	abundance fitness
K5H	-0.203 ± 0.14
K5Y	-0.179 ± 0.14
K5I	-0.171 ± 0.19
K5Q	-0.07 ± 0.14
K5C	-0.134 ± 0.088
K5R	-0.193 ± 0.057
K5D	-0.012 ± 0.12
K5E	-0.049 ± 0.09
K5S	-0.055 ± 0.071
Q8Y	-0.49 ± 0.24
Q8L	-0.108 ± 0.089
Q8S	-0.362 ± 0.08
Q8H	-0.341 ± 0.21
Q8E	0.003 ± 0.085
Q8P	-0.42 ± 0.11
Q8W	-0.581 ± 0.11
Q8C	-0.386 ± 0.14
Q8F	-0.412 ± 0.21
Q8A	-0.145 ± 0.069
Q8M	-0.416 ± 0.15
Q8G	-0.301 ± 0.057
Q8T	-0.065 ± 0.14
Q8I	-0.069 ± 0.18
Q8R	-0.241 ± 0.058

Variant	abundance fitness
Q8N	-0.585 ± 0.15
F10H	-0.132 ± 0.14
F10I	-0.25 ± 0.22
F10L	-0.424 ± 0.11
F10R	-0.332 ± 0.064
F10S	-0.254 ± 0.072
F10K	-0.318 ± 0.12
F10G	-0.277 ± 0.059
F10T	-0.048 ± 0.1
F10E	-0.067 ± 0.087
F10P	-0.177 ± 0.097
F10C	-0.611 ± 0.12
F10D	-0.22 ± 0.13
F10M	-0.4 ± 0.11
A9N	-0.279 ± 0.14
A9Q	-0.041 ± 0.13
A9K	-0.196 ± 0.089
A9H	-0.458 ± 0.13
A9F	-0.563 ± 0.35
A9T	0.117 ± 0.11
A9L	-0.092 ± 0.088
A9G	-0.292 ± 0.064
A9I	0.081 ± 0.13
A9M	-0.119 ± 0.12

Variant	abundance fitness
A9P	-0.536 ± 0.11
A9R	-0.364 ± 0.06
A9C	-0.094 ± 0.1
A9Y	-0.417 ± 0.21
A9W	-0.72 ± 0.096
A9S	-0.106 ± 0.1
A9D	0.09 ± 0.12
A9E	-0.038 ± 0.088
A9V	0.003 ± 0.077
S1P	-0.478 ± 0.25
S1I	-0.075 ± 0.28
S1V	0.13 ± 0.14
S1N	-0.042 ± 0.18
S1Y	0.089 ± 0.23
S1E	-0.206 ± 0.24
S1G	0.07 ± 0.087
S1A	-0.015 ± 0.15
S1L	0.045 ± 0.18
S1M	-0.364 ± 0.38
S1W	-0.417 ± 0.092
S1K	0.135 ± 0.18
S1F	0.15 ± 0.27
S1C	0.042 ± 0.16
S1R	-0.084 ± 0.13

Variant	abundance fitness
S1T	-0.032 ± 0.15
S1D	-0.357 ± 0.48
A6W	-0.948 ± 0.13
A6E	0.172 ± 0.11
A6K	-0.243 ± 0.14
A6S	-0.194 ± 0.084
A6H	-0.201 ± 0.16
A6G	-0.05 ± 0.055
A6M	-0.539 ± 0.13
A6D	-0.002 ± 0.09
A6Y	-0.56 ± 0.13
A6I	-0.153 ± 0.16
A6T	-0.394 ± 0.13
A6L	-0.566 ± 0.077
A6Q	0.009 ± 0.12
A6R	-0.381 ± 0.059
A6V	-0.331 ± 0.072
E4Y	-0.457 ± 0.21
E4V	-1.08 ± 0.093
E4F	-0.294 ± 0.14
E4A	-1.5 ± 0.17
E4P	-0.566 ± 0.13
E4L	-0.23 ± 0.081
E4R	-0.45 ± 0.064

Variant	abundance fitness
E4N	-0.074 ± 0.14
E4K	-0.368 ± 0.11
E4G	-0.374 ± 0.054
E4C	-0.668 ± 0.17
E4T	-0.433 ± 0.1
E4H	-0.082 ± 0.23
E4I	-0.025 ± 0.18
E4S	-0.156 ± 0.071
E4W	-0.642 ± 0.11
E4M	-0.41 ± 0.1
E4D	-0.01 ± 0.099
E4Q	-0.233 ± 0.084
N2T	0.027 ± 0.11
N2Q	0.037 ± 0.095
N2D	0.033 ± 0.18
N2H	-0.83 ± 0.2
N2L	-0.581 ± 0.12
N2Y	-1.01 ± 0.34
N2P	-0.497 ± 0.17
N2M	-0.393 ± 0.12
N2C	-0.547 ± 0.15
N2K	-0.139 ± 0.11
N2A	-0.406 ± 0.12
N2V	-0.849 ± 0.16

Variant	abundance fitness
N2S	-0.208 ± 0.09
N2E	-0.089 ± 0.1
N2I	-0.46 ± 0.23
N2R	-0.324 ± 0.073
N2G	-0.207 ± 0.069
N2W	-0.276 ± 0.12
K7S	-0.005 ± 0.066
K7H	0.065 ± 0.12
K7P	-0.587 ± 0.087
K7T	0.042 ± 0.083
K7F	0.104 ± 0.13
K7R	-0.174 ± 0.055
K7N	-0.074 ± 0.1
K7Y	-0.016 ± 0.15
K7M	0.144 ± 0.094
K7C	-0.276 ± 0.12
K7V	0.124 ± 0.062
K7E	0.135 ± 0.08
K7Q	0.062 ± 0.11
K7I	-0.055 ± 0.17
K7G	-0.319 ± 0.054
K7L	0.065 ± 0.072
K7A	0.027 ± 0.064
